Assay [1] concerns the target PI3Kα: p110α(2-1068) W1057A/I1058A/F1059A + p85(322-600) (human, UniProt P42336 2-1068; P27986 322-600, W1057A | I1058A | F1059A). Briefly: ITC.
Assay [2] has as its target PI3Kγ(144-1102)-His6 (human, UniProt P48736 144-1102). Description: ITC.

Here are results for 2 molecules from article PMC11718114 (2025).

Sequence of PI3Kγ(144-1102)-His6 (P48736 144-1102): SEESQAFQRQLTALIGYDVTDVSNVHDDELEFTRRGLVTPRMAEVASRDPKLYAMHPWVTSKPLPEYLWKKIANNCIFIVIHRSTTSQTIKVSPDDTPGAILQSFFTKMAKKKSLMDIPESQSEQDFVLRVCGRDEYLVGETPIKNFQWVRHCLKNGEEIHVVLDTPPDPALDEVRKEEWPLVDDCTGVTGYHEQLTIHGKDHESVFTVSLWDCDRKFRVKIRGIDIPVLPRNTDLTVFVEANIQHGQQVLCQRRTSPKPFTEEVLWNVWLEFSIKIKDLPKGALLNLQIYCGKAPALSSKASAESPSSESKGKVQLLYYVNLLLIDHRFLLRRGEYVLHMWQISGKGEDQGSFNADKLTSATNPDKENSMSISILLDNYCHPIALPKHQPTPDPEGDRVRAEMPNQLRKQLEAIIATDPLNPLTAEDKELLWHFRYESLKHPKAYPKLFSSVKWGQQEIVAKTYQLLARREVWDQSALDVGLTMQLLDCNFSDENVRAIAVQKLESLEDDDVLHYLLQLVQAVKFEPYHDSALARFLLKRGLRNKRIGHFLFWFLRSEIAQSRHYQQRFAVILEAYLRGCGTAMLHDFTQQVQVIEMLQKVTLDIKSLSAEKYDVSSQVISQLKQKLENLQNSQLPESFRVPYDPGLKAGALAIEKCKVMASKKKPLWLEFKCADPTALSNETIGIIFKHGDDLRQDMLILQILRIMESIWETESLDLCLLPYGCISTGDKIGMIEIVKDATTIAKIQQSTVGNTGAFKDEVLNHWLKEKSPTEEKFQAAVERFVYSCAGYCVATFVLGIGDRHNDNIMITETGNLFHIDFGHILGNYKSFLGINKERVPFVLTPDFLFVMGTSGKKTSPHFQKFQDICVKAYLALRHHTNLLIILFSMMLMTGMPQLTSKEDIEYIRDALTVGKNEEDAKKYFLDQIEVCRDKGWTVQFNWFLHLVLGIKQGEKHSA

B1: RRAS(22-192) (domain or fragment)
chain: GDPPPSETHKLVVVGGGGVGKSALTIQFIQSYFVSDYDPTIEDSYTKICSVDGIPARLDILDTAGQEEFGAMREQYMRAGHGFLLVFAINDRQSFNEVGKLFTQILRVKDRDDFPVVLVGNKADLESQRQVPRSEASAFGASHHVAYFEASAKLRLNVDEAFEQLVRAVRK
For B1, the Kd in assay [1] turned out to be 27.6 µM.

B2: RRAS2 (wild type) (domain or fragment)
chain: MAAAGWRDGSGQEKYRLVVVGGGGVGKSALTIQFIQSYFVTDYDPTIEDSYTKQCVIDDRAARLDILDTAGQEEFGAMREQYMRTGEGFLLVFSVTDRGSFEEIYKFQRQILRVKDRDEFPMILIGNKADLDHQRQVTQEEGQQLARQLKVTYMEASAKIRMNVDQAFHELVRVIRKFQ
B2 showed a Kd in assay [2] of 5.5 µM.
